Source: patent US20120189639A1 (Merck Sharp & Dohme, published 2012)

T1: human GITR on naïve CD4+ T cells (human, UniProt Q9Y5U5 26-241)
T1 sequence: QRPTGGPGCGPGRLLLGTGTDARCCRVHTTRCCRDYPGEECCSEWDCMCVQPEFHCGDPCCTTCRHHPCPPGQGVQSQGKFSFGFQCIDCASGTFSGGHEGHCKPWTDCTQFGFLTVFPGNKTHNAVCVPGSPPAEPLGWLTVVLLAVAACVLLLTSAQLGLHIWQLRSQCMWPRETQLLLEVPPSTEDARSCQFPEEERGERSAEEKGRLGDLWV

T2: hGITR-hIgG (human, UniProt Q9Y5U5 26-161, limits assumed)
T2 construct: not shown: human IgG part of the fusion
T2 sequence: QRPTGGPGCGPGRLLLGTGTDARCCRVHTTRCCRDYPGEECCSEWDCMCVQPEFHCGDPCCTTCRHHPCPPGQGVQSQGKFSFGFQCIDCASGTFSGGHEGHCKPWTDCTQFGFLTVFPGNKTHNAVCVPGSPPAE


Tests used:
[1] = molecular target: T1, human GITR on naïve CD4+ T cells; assay: cell-based or functional assay
hGITR-hIgG [2] = molecular target: T2, hGITR-hIgG; assay: BIAcore SPR; hGITR-hIgG capture antigen, mAb analyte
Description: (§1) BIAcore determinations are performed essentially as described at Example 4 of co-pending, commonly assigned U.S. patent application Ser. No. 11/511,635 (filed 29 Aug. 2006). Briefly, binding partners are immobilized on a BIAcore CM5 sensor chip using standard amine-coupling procedure. Kinetic constants for the various interactions are determined using BIAevaluation software 3.1. The Kd is determined using the calculated dissociation and association rate constants.

hGITR-hIgG [3] = molecular target: T2, hGITR-hIgG; assay: BIAcore SPR; hGITR-hIgG capture antigen, mAb analyte; apparent Kd
Description: as §1

Binder	proliferation of naïve CD4+ T cells, mean, at 0.4 ng/mL Ab [1]	proliferation of naïve CD4+ T cells, mean, at 0.9 ng/mL Ab [1]	proliferation of naïve CD4+ T cells, mean, at 2.2 ng/mL Ab [1]	proliferation of naïve CD4+ T cells, mean, at 5.2 ng/mL Ab [1]	proliferation of naïve CD4+ T cells, mean, at 12.6 ng/mL Ab [1]	proliferation of naïve CD4+ T cells, mean, at 30.1 ng/mL Ab [1]	proliferation of naïve CD4+ T cells, mean, at 72.3 ng/mL Ab [1]	proliferation of naïve CD4+ T cells, mean, at 173.6 ng/mL Ab [1]	proliferation of naïve CD4+ T cells, mean, at 416.7 ng/mL Ab [1]	proliferation of naïve CD4+ T cells, mean, at 1000.0 ng/mL Ab [1]	koff (hGITR-hIgG [2]) [s⁻¹]	kon (hGITR-hIgG [2]) [M⁻¹ s⁻¹]	Kd (hGITR-hIgG [3]) [nM]
9E5 (antibody, V domains shown, Parental rodent anti-human GITR monoclonal antibody from a hybridoma; kappa VL; also called 9E5.C1) VH: QVTLKESGPGILQPSQTLSLTCTFSGFSLSTYGVGVGWIRQPSGKGLEWLANIWWDDDNYYNPSLIHRLTVSKDTSNNQAFLKITNVDTAETATYYCAQIKEPRDWFFEFWGPGTMVSVSS VL: DIQMTQTPSSMPASLGERVTIFCRASQGVNNFLTWYQQKPDGTIKPLIFYTSNLQSGVPSRFSGSGSGTDYSLSISSLEPEDFAMYYCQQYHGFPNTFGAGTKLELKR	60100	60900	69200	77700	85700	83400	85300	84600	79700	83600	2.7e-05	2.33e+06	0.012
1D8 (antibody, V domains shown, Parental rodent anti-human GITR monoclonal antibody from a hybridoma; kappa VL; also called 1D8.B5) VH: QVTLKESGPGILKPSQTLSLTCSFSGFSLSTSGMGVGWIRQPSGKGLEWLAHIWWDDDKYYSPSLKSQLTISKDTSRNQVFLKITSLDTADTATYYCVRSYYYGSSGAMDYWGQGTSVTVSS VL: DIVMTQTPLSLPVSLGDQASISCRSSQSLVHSDGNTYLHWYLQKPGQSPKLLIYKVSKRFSGVPDRFSGSGSGTDFTLKISRVEAEDLGVYFCSQSTHVPPTFGGGTKLEIKR	60800	64800	78500	98200	115000	112000	103000	91000			0.000196	428000	0.458

The next lines start with the values.

proliferation of naïve CD4+ T cells, mean, at 0.4 ng/mL Ab [1]	proliferation of naïve CD4+ T cells, mean, at 0.9 ng/mL Ab [1]	proliferation of naïve CD4+ T cells, mean, at 2.2 ng/mL Ab [1]	proliferation of naïve CD4+ T cells, mean, at 5.2 ng/mL Ab [1]	proliferation of naïve CD4+ T cells, mean, at 12.6 ng/mL Ab [1]	proliferation of naïve CD4+ T cells, mean, at 30.1 ng/mL Ab [1]	proliferation of naïve CD4+ T cells, mean, at 72.3 ng/mL Ab [1]	proliferation of naïve CD4+ T cells, mean, at 173.6 ng/mL Ab [1]	proliferation of naïve CD4+ T cells, mean, at 416.7 ng/mL Ab [1]	proliferation of naïve CD4+ T cells, mean, at 1000.0 ng/mL Ab [1]	koff (hGITR-hIgG [2]) [s⁻¹]	kon (hGITR-hIgG [2]) [M⁻¹ s⁻¹]	Kd (hGITR-hIgG [3]) [nM]	Binder
58500	57000	67600	79600	90500	94700	98600	96900	86900	87500	7e-06	1.57e+06	≤ 0.005	31H6 (antibody, V domains shown, Parental rodent anti-human GITR monoclonal antibody from a hybridoma; kappa VL; also called 31H6.B7) VH: QVTLKESGPGILQPSQTLSLTCTFSGFSLSTYGVGVGWIRQPSGKGLEWLANIWWDDDKYYNPSLKNRLTISKDTSNNQAFLKITNVDTAETATYYCAQIKEPRDWFFEFWGPGTMVSVSS VL: DIQMTQTPSSMPASLGERVTIFCRASQGVNNYLTWYQQKPDGTIKPLIFYTSNLQSGVPSRFSGSGSGTDYSLSISSLEPEDFAMYYCQQYHGFPNTFGAGTKLELKR
58700	62000	73400	77800	90200	87000	83500	87500	85700	89400	0.000146	1.31e+06	0.111	17F10 (antibody, V domains shown, Parental rodent anti-human GITR monoclonal antibody from a hybridoma; kappa VL; also called 17F10.B1) VH: EVKLVESGGGFVKPGGSLKLSCAASGFTVRNYAMSWVRQTPEKRLEWVASISTGDRSYLPDSMKGRFTISRDNARNILYLQMSSLRSEDTAIYYCQRYFDFDSFAFWGQGTLVTVSA VL: DIQMTQTPSSLSASLGDRVTISCRASQDINNFLNWYQQKPDGSLKLLIYYTSKLHSGVPSRFSGSGSGTDFSLTISNLDQEDVATYFCQQGHTLPPTFGGGTKLEVKR
